Results on 8 molecules are retold here after patent publication US20250270343A1 (Alector, published 2025).

Assay [1] deals with T1, full-length untagged human GPNMB expressed on cells (human, UniProt Q14956 23-572).
T1 construct: also used here for GPNMB on human monocyte-derived macrophages in the functional assays; also called huGPNMB; Freestyle293-huGPNMB+
T1 sequence: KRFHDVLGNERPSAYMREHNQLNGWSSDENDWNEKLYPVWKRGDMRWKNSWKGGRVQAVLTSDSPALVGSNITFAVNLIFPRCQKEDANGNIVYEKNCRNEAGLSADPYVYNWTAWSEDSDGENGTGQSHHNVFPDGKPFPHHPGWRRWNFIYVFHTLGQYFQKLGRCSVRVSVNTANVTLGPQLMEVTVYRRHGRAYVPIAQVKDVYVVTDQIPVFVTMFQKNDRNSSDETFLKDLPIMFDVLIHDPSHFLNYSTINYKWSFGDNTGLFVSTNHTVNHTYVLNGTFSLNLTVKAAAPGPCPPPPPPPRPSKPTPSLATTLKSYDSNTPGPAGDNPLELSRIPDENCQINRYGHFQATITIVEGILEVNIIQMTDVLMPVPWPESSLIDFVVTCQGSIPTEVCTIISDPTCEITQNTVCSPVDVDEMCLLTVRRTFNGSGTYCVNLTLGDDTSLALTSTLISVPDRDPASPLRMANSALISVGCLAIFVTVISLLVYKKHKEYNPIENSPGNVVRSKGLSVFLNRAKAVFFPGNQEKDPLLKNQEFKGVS
The experiment in a line: FACS titration, FS293-huGPNMB+ cells. Here is the method: Cell-based binding measurements were also performed to measure the apparent affinities of anti-GPNMB antibodies of the present disclosure to cell-surface expressed GPNMB. Serial dilutions of the monoclonal anti-GPNMB antibodies were added to 100,000 Freestyle293-huGPNMB+ or B16F10 cells and allowed to achieve binding equilibrium at 4° C. After addition of fluorescently labeled secondary antibody and brief washing steps, MFI values as a function of titrated antibody concentration was recorded via FACS analysis. Curves were fit using nonlinear regression analysis with Graphpad Prism 6 software.

Assay [2] has as its target T2, mouse GPNMB endogenously expressed on B16F10 cells (mouse, UniProt Q99P91 23-574).
T2 construct: whole, on cells; also called moGPNMB
T2 sequence (looked up): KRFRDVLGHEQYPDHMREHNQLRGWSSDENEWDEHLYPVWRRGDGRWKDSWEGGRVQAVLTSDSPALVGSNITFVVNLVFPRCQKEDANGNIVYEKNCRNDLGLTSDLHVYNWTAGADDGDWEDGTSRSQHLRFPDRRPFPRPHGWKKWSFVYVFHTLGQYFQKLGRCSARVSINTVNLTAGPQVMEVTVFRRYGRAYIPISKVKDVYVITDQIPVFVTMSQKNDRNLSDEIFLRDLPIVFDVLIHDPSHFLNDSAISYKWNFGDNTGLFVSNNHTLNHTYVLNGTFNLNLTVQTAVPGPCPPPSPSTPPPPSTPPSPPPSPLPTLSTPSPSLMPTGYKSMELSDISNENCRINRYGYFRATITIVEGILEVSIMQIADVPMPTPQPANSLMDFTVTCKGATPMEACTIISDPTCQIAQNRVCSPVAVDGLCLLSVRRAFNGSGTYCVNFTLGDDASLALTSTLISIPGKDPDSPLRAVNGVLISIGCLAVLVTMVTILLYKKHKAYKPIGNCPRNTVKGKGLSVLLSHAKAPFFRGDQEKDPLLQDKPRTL
The experiment in a line: FACS, B16F10 cells. Here is the method:
Recombinant anti-GPNMB antibodies of the present disclosure were examined for their ability to bind human and/or mouse GPNMB expressed on Freestyle293-huGPNMB+ or B16F10 cells, respectively. B16F10 cells are a murine melanoma cell line from a C57BL/6J mouse that endogenously express high levels of mouse GPNMB. The antibodies were also tested for their ability to bind to a human macrophage cell line (U937 cells) engineered to express human GPNMB. Cells were harvested, plated at 100,000 cells/well in a 96-well round bottom plate, and incubated in 100 μl FACS buffer (PBS containing 2% FBS, 2 mM EDTA) containing anti-GPNMB monoclonal antibodies of the present disclosure for 30 minutes on ice. Cells were then washed and incubated in 100 ul FACS buffer containing 1 μg/ml APC-conjugated anti-human IgG secondary antibody for 30 minutes in ice. Cells were washed twice in cold FACS buffer and acquired on a BD FACS Canto. Data analysis and calculation of MFI values was performed with FlowJo (TreeStar) software version 10.0.7. […]
Background: A flow cytometer gives signals particle by particle.

B1: anti-GPNMB antibody GPN-48 (antibody, human IgG1, V domains shown)
VH: QVQLQQSGPELVKPGASVKLSCRASGYGFSSFWMNWVKQRPGKGLEWIGRIYPGKGDTLYNGKFKDKATLTADESSSTAYMQLSSLTSEDSAVYFCARSIYYYDYWYFDVWDTGTTVTVSS
VL: DIVMTQSHKFMSTSVGDRVNITCKASQDVNSAIAWYQQKPGQSPKLLIYSASYRFIGVPDRFTGSGSGTGFTFTISSVQAEDLAVYYCQQHYTTPLTFGAGTKLELK
notes: chimeric
For the molecule B1, in assay [1], the EC50 (commonly the concentration giving half of the maximal effect) is 18.8 nM.

B2: anti-GPNMB antibody GPN-35 (antibody, human IgG1, V domains shown)
VH: EVQLVESGGGSVRPGRSLKLSCAAAGFTFSDYYMTWVRQAPTKGLEWVASINHDGGGTYYRDSVKGRFTISRDNARSSLYLQMDSLRSEDTGTYYCTTRAGWHWGQGVMVTVSS
VL: DIQMTQSPASLSASLGETVSIECLASEDIYNYLTWYQQKPGKSPQVLIYSASGLQDGVPSRFSGSGSGRQYSLKINGLESEDAATYFCLQDSEYPLTFGSGTKLEIK
notes: chimeric
Regarding B2, the “MFI fold over background” value in assay [2] was found to be 15.4 fold. The EC50 in assay [1] worked out at 1.33 nM.

B3: anti-GPNMB antibody GPN-52 (antibody, human IgG1, V domains shown)
VH: DVQLQESGPGLVKPSQTVFLTCTVTGISITTGNYRWSWIRQFPGNKLEWIGYIYYSGTITYNPSLTSRITITRDTPKNEFFLEMNSLTAEDTATYYCARDLTHWYFDVWGTGTTVTVSS
VL: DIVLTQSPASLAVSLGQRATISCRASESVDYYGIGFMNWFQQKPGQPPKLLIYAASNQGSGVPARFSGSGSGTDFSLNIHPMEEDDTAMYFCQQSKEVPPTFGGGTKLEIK
notes: chimeric
For B3, in assay [2], the “MFI fold over background” value was 3.4 fold. The same molecule gave an EC50 in assay [1] of 1.27 nM.

B4: anti-GPNMB antibody GPN-61 (antibody, human IgG1, V domains shown)
VH: DVQLQESGPGLVKPSQTVFLTCTVTGISITTGNYRWSWIRQFPGNKLEWIGYIYYSGTITYNPSLTSRTTITRDTPKNQFFLEMSSLTAEDTATYFCARDLRHWYFDVWGTGTTVTVSS
VL: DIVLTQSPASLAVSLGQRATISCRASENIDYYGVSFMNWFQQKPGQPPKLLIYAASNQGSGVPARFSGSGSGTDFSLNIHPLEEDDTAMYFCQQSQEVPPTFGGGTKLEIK
notes: chimeric
In turn, B4 registered an EC50 in assay [1] of 7.25 nM.

B5: anti-GPNMB antibody GPN-41 (antibody, human IgG1, V domains shown)
VH: QLQLQQSGTEVVKPGASVKIPCKASGYAFSSYWMNWVKQRPGKGLEWIGQIYPGDGDTNDNGKFEGKATLTVDKSSNTAYIQLSSLTSEDSAVYFCARSPLHLRGSMDYWGQGTSVTVSS
VL: SIVMTQTPKFLLVSAGDRVTITCKASQSVSNDVAWFQQKPGQSPELLIYSASNRYTGVPDRFTASGYGTDFTFTISAVQAEDLAVYFCQQNYYSPFTFGGGTRLEIK
notes: chimeric
Turning to B5, the “MFI fold over background” value in assay [2] was found to be 15 fold. Also, in assay [1], the EC50 worked out at 3.88 nM.

B6: anti-GPNMB antibody GPN-42 (antibody, human IgG1, V domains shown)
VH: DVKLVESGEDLVKPGGSLKLSCAASGFTFSSYAMSWVRQTPEKRLEWVAYISSGGDYIYYADTVKGRFTISRDNARNTLYLQMSSLKSEDTAMYYCTRDRYYDYDVRDYYTMDYWGQGTSVTVSS
VL: DVMMTQTPLSLPVSLGDQASISCRSSQSLVHSNGNTYLHWFLQKPGQSPKLLIFRVSNRFSGVPDRFSGRGSGTDFTLKISRVEAEDLGVYFCSQTTHVPRTFGGGTTLEIK
notes: chimeric
For the molecule B6, the “MFI fold over background” value in assay [2] was 2.6 fold.

B7: anti-GPNMB antibody GPN-43 (antibody, human IgG1, V domains shown)
VH: EVQLQQSGPELVKPGASVKISCKASGYTFTDYYMNWVRQSHGKSLEWIGDINPYHGGSTYNQKIKVKATLTVDKSSSTAYMELRSLTSEDSAVYYCARNWPYFDYWGQGTTLTVSS
VL: DIQMTQSPASLSASVGETVTITCRASENIYSFLVWYQQKQGKSPQLLVYNAKTLAEGVPSRFSGSGSGTQFSLKISSLQPEDFGSYYCQHHFGTPPYTFGGGTKLEIK
notes: chimeric
Regarding B7, the “MFI fold over background” value in assay [2] came out at 1.6 fold.

B8: anti-GPNMB antibody GPN-38 (antibody, human IgG1, V domains shown)
VH: QVQLQQPGAELVRPGTSVRLSCKASGYTFTSYWIHWVKQRPGRGLEWIGVIDPSDSYTNYNQQFNVKATLTVDTSSSAAYMQLSSLTSEDSAVYYCARGLITAVNWYFDVWGTGTTVTVSS
VL: DIQMTQSPASLSTSVGEIVTITCRASENIYSYLTWYQQKQGKSPQLLVYNAKTLAEGVPSRFSGSGSGTQFSLKINSLQPEDFGTYYCQHHYGTPLTFGSGTKLEIK
notes: chimeric
As to B8, the “MFI fold over background” value in assay [2] was determined as 5.1 fold. Also, the EC50 in assay [1] is 0.99 nM.
